Assay results as given in US7067277B1, “Chimeric G proteins and uses thereof” (H. Lundbeck A/S, priority 1999, dated 2006).

T1: h GALR3 (Homo sapiens, UniProt O60755)
T1 sequence (O60755 1-368): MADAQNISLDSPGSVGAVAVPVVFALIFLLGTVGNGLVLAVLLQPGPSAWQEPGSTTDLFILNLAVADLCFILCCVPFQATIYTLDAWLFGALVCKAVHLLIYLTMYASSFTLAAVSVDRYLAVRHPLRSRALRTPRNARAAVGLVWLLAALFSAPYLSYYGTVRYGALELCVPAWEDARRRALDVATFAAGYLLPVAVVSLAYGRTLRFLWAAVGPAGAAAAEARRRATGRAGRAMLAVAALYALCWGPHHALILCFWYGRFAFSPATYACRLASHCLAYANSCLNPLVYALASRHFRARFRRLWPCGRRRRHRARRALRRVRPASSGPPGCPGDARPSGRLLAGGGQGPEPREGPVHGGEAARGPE

T2: r GALR3 (Rattus norvegicus, UniProt O88626)
T2 sequence (O88626 1-370): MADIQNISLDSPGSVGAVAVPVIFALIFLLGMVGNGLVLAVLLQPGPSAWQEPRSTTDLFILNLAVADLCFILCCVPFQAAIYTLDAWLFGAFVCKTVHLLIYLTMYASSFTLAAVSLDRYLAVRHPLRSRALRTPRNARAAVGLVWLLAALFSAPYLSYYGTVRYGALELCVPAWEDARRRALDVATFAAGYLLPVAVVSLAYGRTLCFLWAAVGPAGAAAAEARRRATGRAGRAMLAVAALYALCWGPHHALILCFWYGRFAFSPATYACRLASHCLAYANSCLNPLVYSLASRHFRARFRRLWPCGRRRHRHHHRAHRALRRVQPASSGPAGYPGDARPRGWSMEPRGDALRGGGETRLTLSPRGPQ

T3: r GALR2 (Rattus norvegicus, UniProt O08726)
T3 construct: expressed in transfected cells; host or cells: COS-7
T3 sequence (O08726 1-372): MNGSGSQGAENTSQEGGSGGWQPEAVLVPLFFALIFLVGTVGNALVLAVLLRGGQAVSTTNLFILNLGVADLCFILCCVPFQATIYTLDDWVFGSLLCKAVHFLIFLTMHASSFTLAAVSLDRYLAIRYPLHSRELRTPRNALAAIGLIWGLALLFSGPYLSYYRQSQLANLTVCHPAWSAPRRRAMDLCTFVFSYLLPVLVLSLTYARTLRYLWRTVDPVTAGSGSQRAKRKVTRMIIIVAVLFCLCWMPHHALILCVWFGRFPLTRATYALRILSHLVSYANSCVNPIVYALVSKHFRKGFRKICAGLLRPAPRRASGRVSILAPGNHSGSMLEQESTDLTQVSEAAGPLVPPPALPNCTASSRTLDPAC


Legend:
Test in all cases: Calcium mobilization (FLIPR, Fluo-3) in transfected COS-7 cells
Type in all cases: cell-based
h D3 = h D3 (Homo sapiens, UniProt P35462); details: h D3 + chimera in COS-7; agonist DA, max 100 μM
Outline: (§1)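 First, COS-7 cells receive GPCR and chimeric G protein cDNA by DEAE-dextran transfection. Agonist responses are finally recorded by FLIPR for 3 min at room temperature.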

h 5HT1B = h 5HT1B (Homo sapiens, UniProt P28222); details: h 5HT1B + chimera in COS-7; agonist 5HT, max 100 μM
Outline: as §1

h GALR3 = target: T1, h GALR3; details: h GALR3 + chimera in COS-7; agonist GAL, max 10 μM
Outline: as §1

r GALR3 = target: T2, r GALR3; details: r GALR3 + chimera in COS-7; agonist GAL, max 10 μM
Outline: as §1

h 5HT4 = h 5HT4 (Homo sapiens, UniProt Q13639); details: h 5HT4 + chimera in COS-7; agonist 5HT, max 100 μM
Outline: as §1

h NPFF1 = target: T4, h NPFF1 (Homo sapiens, UniProt Q9GZQ6); details: h NPFF1 + chimera in COS-7; agonist NPFF, max 10 μM
T4 construct: expressed in transfected cells; host or cells: COS-7
Outline: as §1

r Y4 = r Y4 (Rattus norvegicus, UniProt Q63447); details: r Y4 + chimera in COS-7; agonist PP, max 10 μM
Outline: as §1

r GALR2 = target: T3, r GALR2; details: r GALR2 + chimera in COS-7; agonist GAL, max 10 μM
Outline: as §1

m 5HT5B = m 5HT5B (Mus musculus, UniProt P31387); details: m 5HT5B + chimera in COS-7; agonist 5HT, max 100 μM
Outline: as §1

h Y4 = target: T5, h Y4 (Homo sapiens, UniProt P50391); details: h Y4 + chimera in COS-7; agonist PP, max 10 μM
T5 construct: expressed in transfected cells; host or cells: COS-7
Outline: as §1

Sequence of h 5HT1B (P28222 whole entry): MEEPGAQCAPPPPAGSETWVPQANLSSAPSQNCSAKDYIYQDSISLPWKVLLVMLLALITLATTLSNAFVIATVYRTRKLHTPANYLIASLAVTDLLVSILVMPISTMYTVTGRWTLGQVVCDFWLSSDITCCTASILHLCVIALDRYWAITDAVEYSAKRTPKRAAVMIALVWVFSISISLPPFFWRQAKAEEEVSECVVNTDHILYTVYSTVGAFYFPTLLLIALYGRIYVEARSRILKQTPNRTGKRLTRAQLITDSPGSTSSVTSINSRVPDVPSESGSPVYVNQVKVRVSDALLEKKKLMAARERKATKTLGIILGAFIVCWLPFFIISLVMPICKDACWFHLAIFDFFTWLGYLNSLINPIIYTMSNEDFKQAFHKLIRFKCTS
Sequence of h 5HT4 (Q13639 whole entry): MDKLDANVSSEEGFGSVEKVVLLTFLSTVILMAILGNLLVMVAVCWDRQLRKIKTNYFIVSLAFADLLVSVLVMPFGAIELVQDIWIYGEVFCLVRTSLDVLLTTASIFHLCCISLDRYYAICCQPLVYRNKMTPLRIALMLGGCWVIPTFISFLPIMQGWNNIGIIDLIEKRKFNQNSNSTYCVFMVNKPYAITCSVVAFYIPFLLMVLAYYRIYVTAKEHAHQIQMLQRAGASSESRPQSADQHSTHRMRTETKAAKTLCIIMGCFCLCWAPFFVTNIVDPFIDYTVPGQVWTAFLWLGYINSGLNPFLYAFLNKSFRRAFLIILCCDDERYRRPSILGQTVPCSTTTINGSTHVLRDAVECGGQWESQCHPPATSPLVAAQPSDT
Sequence of h D3 (P35462 whole entry): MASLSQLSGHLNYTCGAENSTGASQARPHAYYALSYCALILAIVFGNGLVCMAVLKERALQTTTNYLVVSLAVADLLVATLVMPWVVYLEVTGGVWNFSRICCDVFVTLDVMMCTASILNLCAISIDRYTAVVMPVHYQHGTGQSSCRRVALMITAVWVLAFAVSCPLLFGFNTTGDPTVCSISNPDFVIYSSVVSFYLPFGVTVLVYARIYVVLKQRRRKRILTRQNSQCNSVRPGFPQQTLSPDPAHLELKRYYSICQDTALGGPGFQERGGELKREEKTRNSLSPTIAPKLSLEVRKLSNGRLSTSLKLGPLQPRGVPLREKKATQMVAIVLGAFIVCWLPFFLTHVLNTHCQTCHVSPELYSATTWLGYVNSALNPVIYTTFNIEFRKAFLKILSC
Sequence of r Y4 (Q63447 whole entry): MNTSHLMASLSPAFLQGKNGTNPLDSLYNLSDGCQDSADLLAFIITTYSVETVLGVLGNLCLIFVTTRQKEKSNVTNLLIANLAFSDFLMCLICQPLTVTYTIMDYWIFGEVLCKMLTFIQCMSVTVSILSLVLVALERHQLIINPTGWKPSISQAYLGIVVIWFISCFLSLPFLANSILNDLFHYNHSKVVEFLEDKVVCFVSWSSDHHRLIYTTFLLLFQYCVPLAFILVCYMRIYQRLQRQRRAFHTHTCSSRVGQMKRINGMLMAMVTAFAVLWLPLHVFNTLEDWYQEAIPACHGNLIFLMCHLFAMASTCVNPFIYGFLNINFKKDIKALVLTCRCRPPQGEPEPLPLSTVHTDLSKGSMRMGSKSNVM
Sequence of m 5HT5B (P31387 whole entry): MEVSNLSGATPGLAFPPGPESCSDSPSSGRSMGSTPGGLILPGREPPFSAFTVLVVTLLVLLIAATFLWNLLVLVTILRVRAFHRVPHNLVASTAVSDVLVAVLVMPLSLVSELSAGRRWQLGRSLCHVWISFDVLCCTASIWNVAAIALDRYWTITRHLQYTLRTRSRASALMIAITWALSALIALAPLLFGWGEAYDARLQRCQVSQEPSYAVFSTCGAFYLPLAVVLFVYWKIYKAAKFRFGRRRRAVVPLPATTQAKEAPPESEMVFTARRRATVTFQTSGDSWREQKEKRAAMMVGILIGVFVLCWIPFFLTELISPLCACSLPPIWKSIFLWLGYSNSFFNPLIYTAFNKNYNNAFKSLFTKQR
T5 sequence (P50391 whole entry): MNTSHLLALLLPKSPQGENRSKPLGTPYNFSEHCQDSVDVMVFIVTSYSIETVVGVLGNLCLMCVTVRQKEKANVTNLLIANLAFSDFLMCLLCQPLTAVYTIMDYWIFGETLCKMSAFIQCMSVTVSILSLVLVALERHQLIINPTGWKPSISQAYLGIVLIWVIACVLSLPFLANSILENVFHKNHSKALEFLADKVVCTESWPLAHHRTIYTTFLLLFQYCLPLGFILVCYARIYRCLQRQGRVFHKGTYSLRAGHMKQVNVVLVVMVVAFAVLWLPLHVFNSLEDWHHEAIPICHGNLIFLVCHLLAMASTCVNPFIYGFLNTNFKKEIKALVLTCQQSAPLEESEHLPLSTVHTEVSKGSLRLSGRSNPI
T4 sequence (Q9GZQ6 whole entry): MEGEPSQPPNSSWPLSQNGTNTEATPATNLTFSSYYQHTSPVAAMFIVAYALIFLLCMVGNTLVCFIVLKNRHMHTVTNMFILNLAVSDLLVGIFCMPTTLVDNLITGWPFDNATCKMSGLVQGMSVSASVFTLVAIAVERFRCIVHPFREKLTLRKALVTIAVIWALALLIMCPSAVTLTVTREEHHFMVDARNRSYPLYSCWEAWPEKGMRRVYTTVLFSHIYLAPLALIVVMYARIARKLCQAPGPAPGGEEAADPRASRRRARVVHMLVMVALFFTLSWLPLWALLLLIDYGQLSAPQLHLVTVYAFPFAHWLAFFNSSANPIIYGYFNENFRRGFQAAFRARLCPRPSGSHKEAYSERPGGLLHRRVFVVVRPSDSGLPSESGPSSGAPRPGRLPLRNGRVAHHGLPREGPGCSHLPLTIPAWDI

Row | Molecule | MAXIMAL SIGNAL (FLUORESCENCE UNITS) (h D3) | MAXIMAL SIGNAL (FLUORESCENCE UNITS) (h 5HT1B) | MAXIMAL SIGNAL (FLUORESCENCE UNITS) (h GALR3) | MAXIMAL SIGNAL (FLUORESCENCE UNITS) (r GALR3) | MAXIMAL SIGNAL (FLUORESCENCE UNITS) (h 5HT4) | MAXIMAL SIGNAL (FLUORESCENCE UNITS) (h NPFF1) | MAXIMAL SIGNAL (FLUORESCENCE UNITS) (r Y4) | MAXIMAL SIGNAL (FLUORESCENCE UNITS) (r GALR2) | MAXIMAL SIGNAL (FLUORESCENCE UNITS) (m 5HT5B) | MAXIMAL SIGNAL (FLUORESCENCE UNITS) (h Y4)
1 | cGαq/z5: chimeric Gα subunit: C-terminal final 5 amino acids of C. elegans Gαq replaced with those of hGαz (SEQ ID NO: 1) (protein, C. elegans) MACCLSEEAREQKRINQEIEKQLQRDKRNARRELKLLLLGTGESGKSTFIKQMRIIHGQGYSEEDKRAHIRLVYQNVFMAIQSMIRAMDTLDIKFGNESEELQEKAAVVREVDFESVTSFEEPYVSYIKELWEDSGIQECYDRRREYQLTDSAKYYLSDLRRLAVPDYLPTEQDILRVRVPTTGIIEYPFDLEQIIFRMVDVGGQRSERRKWIHCFENVTSIMFLVALSEYDQVLVECDNENRMEESKALFRTIITYPWFTNSSVILFLNKKDLLEEKILYSHLADYFPEYDGPPRDPIAAREFILKMFVDLNPDADKIIYSHFTCATDTENIRFVFAAVKDTILQHNLKYIGLC | 0 fluorescence units | 929 fluorescence units | 1523 fluorescence units | 2298 fluorescence units | 1011 fluorescence units | 6593 fluorescence units | 3662 fluorescence units | 4198 fluorescence units | 265 fluorescence units | 9422 fluorescence units
2 | cGαq/z9: C. elegans Gαq with Gαz portion of the C-terminal tail extended to 9 amino acids (SEQ ID NO: 2) (protein, C. elegans) MACCLSEEAREQKRINQEIEKQLQRDKRNARRELKLLLLGTGESGKSTFIKQMRIIHGQGYSEEDKRAHIRLVYQNVFMAIQSMIRAMDTLDIKFGNESEELQEKAAVVREVDFESVTSFEEPYVSYIKELWEDSGIQECYDRRREYQLTDSAKYYLSDLRRLAVPDYLPTEQDILRVRVPTTGIIEYPFDLEQIIFRMVDVGGQRSERRKWIHCFENVTSIMFLVALSEYDQVLVECDNENRMEESKALFRTIITYPWFTNSSVILFLNKKDLLEEKILYSHLADYFPEYDGPPRDPIAAREFILKMFVDLNPDADKIIYSHFTCATDTENIRFVFAAVKDTILQNNLKYIGLC | 121 fluorescence units | 1217 fluorescence units | 2050 fluorescence units | 2971 fluorescence units | 1696 fluorescence units | 2966 fluorescence units | 2583 fluorescence units | 4470 fluorescence units | 443 fluorescence units | 7397 fluorescence units
